How the values were obtained:
[1] = biological target: Fc receptors on Mv4-11 cells; assay: flow cytometry, titration of IRDye680RD-labeled protein on Mv4-11 cells, non-linear fit of normalized MFI
[2] = biological target: Fc receptors on monocytes of human peripheral blood; assay: flow cytometry on human peripheral blood with immune panel, monocyte gate (CD14 vs Fc-680)
[3] = biological target: Fc receptors on granulocytes of human peripheral blood; assay: flow cytometry on human peripheral blood with immune panel, granulocyte gate (CD16 vs Fc-680)
[4] = biological target: Fc receptors on HL-60 cells; assay: flow cytometry, titration of IRDye680RD-labeled protein on HL-60 cells, non-linear fit of normalized MFI

Substance	Kd [1]	percent of cells bound [2]	percent of cells bound [3]	Kd [4]
human IgG1 Fc domain (hinge, CH2 and CH3; expressed with IL2 signal sequence), labeled with IRDye680RD (from UniProt P0DOX5 218-449)	0.4 nM	25%	33%	3.6 nM
control scFv-Fc, labeled with IRDye680RD (Fc fusion)	1.5 nM			2.1 nM
control IgG, labeled with IRDye680RD (antibody)	1.7 nM			5 nM
